Source: paper PMC2362091, “Expression of V1A and GRP receptors leads to cellular transformation and increased sensitivity to substance-P analogue-induced growth inhibition” (British Journal of Cancer, 2005)

Target: arginine vasopressin (AVP) (Homo sapiens), P01185
Test: competition

Chain of arginine vasopressin (AVP) (Homo sapiens), P01185 (P01185 whole entry, looked up): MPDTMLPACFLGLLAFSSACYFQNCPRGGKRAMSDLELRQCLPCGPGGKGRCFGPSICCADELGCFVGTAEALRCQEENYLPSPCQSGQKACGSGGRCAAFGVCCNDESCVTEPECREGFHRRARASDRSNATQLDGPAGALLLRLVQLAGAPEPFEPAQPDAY

B1: V1A receptor, P37288 (protein)
chain: MRLSAGPDAGPSGNSSPWWPLATGAGNTSREAEALGEGNGPPRDVRNEELAKLEIAVLAVTFAVAVLGNSSVLLALHRTPRKTSRMHLFIRHLSLADLAVAFFQVLPQMCWDITYRFRGPDWLCRVVKHLQVFGMFASAYMLVVMTADRYIAVCHPLKTLQQPARRSRLMIAAAWVLSFVLSTPQYFVFSMIEVNNVTKARDCWATFIQPWGSRAYVTWMTGGIFVAPVVILGTCYGFICYNIWCNVRGKTASRQSKGAEQAGVAFQKGFLLAPCVSSVKSISRAKIRTVKMTFVIVTAYIVCWAPFFIIQMWSVWDPMSVWTESENPTITITALLGSLNSCCNPWIYMFFSGHLLQDCVQSFPCCQNMKEKFNKEDTDSMSRRQTFYSNNRSPTNSTGMWKDSPKSSKSIKFIPVST
Binder B1 has a Kd of 2.98 nM.
